Source: patent US7884199B2, “HCV NS3-NS4 protease resistance mutants” (priority 2003, dated 2011)
Positions count from the first letter of the chain named. Names and notes keep the numbering of the source.

Assay: Substrate kinetic parameters of NS3 serine protease domains with KK-NS4A peptide and FRET substrate
Type: biochemical, Hepatitis C virus
Protocol: Enzymatic activity was determined using a modification of the assay described by Taliani et al., [Taliani et al., Anal. Biochem., 240, pp. 60-67 (1996)]. An internally quenched fluorogenic peptide (FRET substrate), Ac-DED(EDANS)EEαAbuψ[COO]ASK (DABCYL)-NH2, was purchased from AnaSpec Incorporated (San Jose, Calif.). The assay was run in a continuous mode in a 96-well microtiter plate format. The buffer was composed of 50 mM HEPES (pH 7.8), 100 mM NaCl, 20% glycerol, 5 mM DTT, and 25 μM KK4A peptide ([…]; SEQ ID NO:5). The KK4A peptide represents the central region of the NS4A cofactor from genotype 1a with lysine residues added for improved solubility [Landro et al. Biochemistry, 36, pp. 9340-9348 (1997)]. The reaction was initiated by the addition of the FRET substrate after a 10-min pre-incubation of the buffer components with 2 nM of the NS3 protease at room temperature. The reaction was monitored at 30° C. for 20 min using a Molecular Devices fmax fluorometric plate reader. The filters for excitation and emission wavelengths were 355 nm and 495 nm, respectively. For determination of substrate kinetic parameters, concentrations of the FRET peptide were varied from 0.5-7.0 μM. Inter-molecular quenching was not observed in this range. The substrate kinetic parameters, Km and Vmax, were determined by fitting the data to the Michaelis-Menten equation. […] This mixture was incubated for an additional 15 min at room temperature prior to an incubation with the FRET substrate for another 20 min at 30° C. Seven to eight concentrations of compound were assayed, and the resulting data were fitted to the integrated form of Morrison's equation for tight binding inhibition [J. F. Morrison, Biochim. Biophys. Acta, 185 pp. 269-286 (1969)]. All substrate and inhibitor data were fitted using Marquardt-Levenberg nonlinear regression with GraphPad Prism software.
Five HCV NS3 serine protease domain proteins, including the genotype 1a and 1b wild-type (wt) proteases, and three mutants (A156S, D168V, and D168A) of the genotype 1b, were expressed and purified as described in Materials and Methods. The kcat and Km values of these NS3 proteases were determined using the KK-NS4A core peptide and the FRET substrate.
Table 4 summary: Three HCV NS3 serine protease domain proteins of the Con1 strain, including the wild-type proteases and two mutants, A156T and A156V, were expressed and purified. The kcat and Km values of these NS3 proteases were determined using the KK-NS4A core peptide and the FRET substrate, and the average of two independent assays was shown.

[1] = Table 1, FRET substrate, KK-NS4A core peptide
[2] = Table 4, Con1 strain, average of two independent assays

B1: D168A (1b) (protein)
chain: APITAYSQQTRGLLGCIITSLTGRDRNQVEGEVQVVSTATQSFLATCVNGVCWTVYHGAGSKTLAGPKGPITQMYTNVDQDLVGWQAPPGARSLTPCTCGSSDLYLVTRHADVIPVRRRGDSRGSLLSPRPVSYLKGSSGGPLLCPSGHAVGIFRAAVCTRGVAKAVAFVPVESMETTMRSHHHHHH
**Q.** What does the source list for B1?
**A.** change of substrate kinetic parameters (kcat, kcat/Km) compared with wild type (FRET substrate): less than 10 fold; Kcat [1]: 0.3 s⁻¹; Km [1]: 2 µM

B2: Wt (1b): wild-type HCV NS3 serine protease domain, genotype 1b (Con1 strain) (protein)
chain: B1 chain with A168D
**Q.** What does the source list for B2?
**A.** Kcat [1]: 1.0 s⁻¹; Km [1]: 1.1 µM; Kcat [2]: 1.0 s − 1; Km [2]: 1.1 µM
